Source: patent publication US11981719 (ALTEOGEN, dated 2024)

T1: recombinant hGH receptor Fc chimera (human, UniProt P10912 19-264)
T1 construct: also called hGH receptor chimera; not shown: Fc part of the chimera
T1 sequence (looked up): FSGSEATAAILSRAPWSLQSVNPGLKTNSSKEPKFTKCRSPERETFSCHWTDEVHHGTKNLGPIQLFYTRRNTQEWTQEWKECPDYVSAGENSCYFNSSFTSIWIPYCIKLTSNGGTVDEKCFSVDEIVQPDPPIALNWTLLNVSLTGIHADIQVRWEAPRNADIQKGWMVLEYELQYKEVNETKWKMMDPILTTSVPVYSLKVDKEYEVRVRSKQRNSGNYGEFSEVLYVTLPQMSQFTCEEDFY

T2: hGH receptor on hGHR/Luc/HEK293F cells (human, UniProt P10912 19-638)
T2 sequence (looked up): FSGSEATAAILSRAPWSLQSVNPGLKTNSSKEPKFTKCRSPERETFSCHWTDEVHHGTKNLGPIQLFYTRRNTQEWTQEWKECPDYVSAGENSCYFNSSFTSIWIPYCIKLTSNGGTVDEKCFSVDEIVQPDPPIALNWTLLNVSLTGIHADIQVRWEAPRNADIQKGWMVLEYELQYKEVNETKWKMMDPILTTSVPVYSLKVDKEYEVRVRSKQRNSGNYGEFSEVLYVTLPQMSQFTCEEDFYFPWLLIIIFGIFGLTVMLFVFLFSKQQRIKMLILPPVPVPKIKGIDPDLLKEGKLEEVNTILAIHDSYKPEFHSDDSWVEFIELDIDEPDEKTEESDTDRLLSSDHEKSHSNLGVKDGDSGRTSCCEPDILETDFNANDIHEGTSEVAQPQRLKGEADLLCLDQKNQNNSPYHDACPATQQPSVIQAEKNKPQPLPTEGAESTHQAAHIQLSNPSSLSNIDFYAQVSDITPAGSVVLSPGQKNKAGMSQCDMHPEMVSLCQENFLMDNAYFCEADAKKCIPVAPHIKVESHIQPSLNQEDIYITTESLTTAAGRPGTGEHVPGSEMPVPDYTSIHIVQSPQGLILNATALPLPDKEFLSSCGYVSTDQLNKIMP

B1: hGH-A3 (ligand)
chain: FPTIPLSRLFDNAMLRAHRLNQLAFDTYQEFEEAYIPKEQKYSFLQNPQTSLCFSESIPTPSNREETQQKSNLELLRISLLLIQSWLEPVQFLRSVFANSLVYGASDSNVYDLLKDLEEKIQTLMGRLEDGSPRTGQIFKQTYSKFDTNSHNDDALLKNYGLLYCFRKDMDKVSTFLRIVQCRSVEGSCGFEDPQGDAANKTDTSHHDQDHPTFNKITPNLAEFAFSLYRQLAHQSNSTNIFFSPVSIATAFAMLSLGTKADTHDEILEGLNFNLTEIPEAQIHEGFQELLHTLNQPDSQLQLTTGNGLFLSEGLKLVDKFLEDVKKLYHSEAFTVNFGDTEEAKKQINDYVEKGTQGKIVDLVKELDRDTVFALVNYIFFKGKWERPFEVKDTEEEDFHVDQVTTVKVPMMKRLGMFNIQHCKKLSSWVLLMKYLGNATAIFFLPDEGKLQHLENELTHDIITKFLENEDRRSASLHLPKLSITGTYDLKSVLGQLGITKVFSNGADLSGVTEEAPLKLSKAVHKAVLTIDEKGTEAAGAMFLEAINMSIPPEVKFNKPFVFLMIDQNTKSPLFMGKVVNPTQK
notes: also called hGHRA-NexP
B2: hGH-A9 (ligand)
chain: FPTIPLSRLFDNAMLRADRLNQLAFDTYQEFEEAYIPKEQKYSFLKNPQTSLCFSESIPTPSNREETQQKSNLELLRISLLLIQSWLEPVQFLRSVFANSLVYGASDSNVYDLLKDLEEKIQTLMGRLEDGSPRTGQIFKQTYSKFDTNSHNDDALLKNYGLLYCFRKDMDKVSTFLRTVQCRSVEGSCGFEDPQGDAANKTDTSHHDQDHPTFNKITPNLAEFAFSLYRQLAHQSNSTNIFFSPVSIATAFAMLSLGTKADTHDEILEGLNFNLTEIPEAQIHEGFQELLHTLNQPDSQLQLTTGNGLFLSEGLKLVDKFLEDVKKLYHSEAFTVNFGDTEEAKKQINDYVEKGTQGKIVDLVKELDRDTVFALVNYIFFKGKWERPFEVKDTEEEDFHVDQVTTVKVPMMKRLGMFNIQHCKKLSSWVLLMKYLGNATAIFFLPDEGKLQHLENELTHDIITKFLENEDRRSASLHLPKLSITGTYDLKSVLGQLGITKVFSNGADLSGVTEEAPLKLSKAVHKAVLTIDEKGTEAAGAMFLEAINMSIPPEVKFNKPFVFLMIDQNTKSPLFMGKVVNPTQK
notes: also called hGHRA-NexP
B3: hGH-A6 (ligand)
chain: FPTIPLSRLFDNAMLRAHRLNQLAFDTYQEFEEAYIPKEQKYSFLQNPQTSLCPSESIPTPSNKEETQQKSNLELLRISLLLIQSWLEPVQFLRSVFANSLVYGASDSNVYDLLKDLEEKIQTLMGRLEDGSPRTGQIFKQTYSKFDTNSHNDDALLKNYGLLYCFRKDMDKVSTYLRIVQCRSVEGSCGFEDPQGDAANKTDTSHHDQDHPTFNKITPNLAEFAFSLYRQLAHQSNSTNIFFSPVSIATAFAMLSLGTKADTHDEILEGLNFNLTEIPEAQIHEGFQELLHTLNQPDSQLQLTTGNGLFLSEGLKLVDKFLEDVKKLYHSEAFTVNFGDTEEAKKQINDYVEKGTQGKIVDLVKELDRDTVFALVNYIFFKGKWERPFEVKDTEEEDFHVDQVTTVKVPMMKRLGMFNIQHCKKLSSWVLLMKYLGNATAIFFLPDEGKLQHLENELTHDIITKFLENEDRRSASLHLPKLSITGTYDLKSVLGQLGITKVFSNGADLSGVTEEAPLKLSKAVHKAVLTIDEKGTEAAGAMFLEAINMSIPPEVKFNKPFVFLMIDQNTKSPLFMGKVVNPTQK
notes: also called hGHRA-NexP
B4: hGH-A4 (ligand)
chain: FPTIPLSRLFDNAMLRADRLNQLAFDTYQEFEEAYIPKEQKYSFLQNPQTSLCFSESIPTPSNREETQQKSNLELLRISLLLIQSWLEPVQFLRSVFANSLVYGASDSNVYDLLKDLEEKIQTLMGRLEDGSPRTGQIFKQTYSKFDTNSHNDDALLKNYGLLYCFRKDMDKVSTFLRTVQCRSVEGSCGFEDPQGDAANKTDTSHHDQDHPTFNKITPNLAEFAFSLYRQLAHQSNSTNIFFSPVSIATAFAMLSLGTKADTHDEILEGLNFNLTEIPEAQIHEGFQELLHTLNQPDSQLQLTTGNGLFLSEGLKLVDKFLEDVKKLYHSEAFTVNFGDTEEAKKQINDYVEKGTQGKIVDLVKELDRDTVFALVNYIFFKGKWERPFEVKDTEEEDFHVDQVTTVKVPMMKRLGMFNIQHCKKLSSWVLLMKYLGNATAIFFLPDEGKLQHLENELTHDIITKFLENEDRRSASLHLPKLSITGTYDLKSVLGQLGITKVFSNGADLSGVTEEAPLKLSKAVHKAVLTIDEKGTEAAGAMFLEAINMSIPPEVKFNKPFVFLMIDQNTKSPLFMGKVVNPTQK
notes: also called hGHRA-NexP
B5: hGH-A7 (ligand)
chain: FPTIPLSRLFDNAMLRAHRLNQLAFDTYQEFEEAYIPKEQKYSFLQNPQTSLCPSESIPTPSNKEETQQKSNLELLRISLLLIQSWLEPVQFLRSVFANSLVYGASDSNVYDLLKDLEEKIQTLMGRLEDGSPRTGQIFKQTYSKFDTNSHNDDALLKNYGLLYCFNKDMSKVSTYLRIVQCRSVEGSCGFEDPQGDAANKTDTSHHDQDHPTFNKITPNLAEFAFSLYRQLAHQSNSTNIFFSPVSIATAFAMLSLGTKADTHDEILEGLNFNLTEIPEAQIHEGFQELLHTLNQPDSQLQLTTGNGLFLSEGLKLVDKFLEDVKKLYHSEAFTVNFGDTEEAKKQINDYVEKGTQGKIVDLVKELDRDTVFALVNYIFFKGKWERPFEVKDTEEEDFHVDQVTTVKVPMMKRLGMFNIQHCKKLSSWVLLMKYLGNATAIFFLPDEGKLQHLENELTHDIITKFLENEDRRSASLHLPKLSITGTYDLKSVLGQLGITKVFSNGADLSGVTEEAPLKLSKAVHKAVLTIDEKGTEAAGAMFLEAINMSIPPEVKFNKPFVFLMIDQNTKSPLFMGKVVNPTQK
notes: also called hGHRA-NexP
B6: hGH-A8 (ligand)
chain: FPTIPLSRLFDNAMLRADRLNQLAFDTYQEFEEAYIPKEQKYSFLQNPQTSLCFSESIPTPSNREETQQKSNLELLRISLLLIQSWLEPVQFLRSVFANSLVYGASDSNVYDLLKDLEEKIQTLMGRLEDGSPRTGQIFKQTYSKFDTNSHNDDALLKNYGLLYCFNADMSRVSTFLRTVQCRSVEGSCGFEDPQGDAANKTDTSHHDQDHPTFNKITPNLAEFAFSLYRQLAHQSNSTNIFFSPVSIATAFAMLSLGTKADTHDEILEGLNFNLTEIPEAQIHEGFQELLHTLNQPDSQLQLTTGNGLFLSEGLKLVDKFLEDVKKLYHSEAFTVNFGDTEEAKKQINDYVEKGTQGKIVDLVKELDRDTVFALVNYIFFKGKWERPFEVKDTEEEDFHVDQVTTVKVPMMKRLGMFNIQHCKKLSSWVLLMKYLGNATAIFFLPDEGKLQHLENELTHDIITKFLENEDRRSASLHLPKLSITGTYDLKSVLGQLGITKVFSNGADLSGVTEEAPLKLSKAVHKAVLTIDEKGTEAAGAMFLEAINMSIPPEVKFNKPFVFLMIDQNTKSPLFMGKVVNPTQK
notes: also called hGHRA-NexP
B7: hGH-A10 (ligand)
chain: EDPQGDAANKTDTSHHDQDHPTFNKITPNLAEFAFSLYRQLAHQSNSTNIFFSPVSIATAFAMLSLGTKADTHDEILEGLNFNLTEIPEAQIHEGFQELLHTLNQPDSQLQLTTGNGLFLSEGLKLVDKFLEDVKKLYHSEAFTVNFGDTEEAKKQINDYVEKGTQGKIVDLVKELDRDTVFALVNYIFFKGKWERPFEVKDTEEEDFHVDQVTTVKVPMMKRLGMFNIQHCKKLSSWVLLMKYLGNATAIFFLPDEGKLQHLENELTHDIITKFLENEDRRSASLHLPKLSITGTYDLKSVLGQLGITKVFSNGADLSGVTEEAPLKLSKAVHKAVLTIDEKGTEAAGAMFLEAINMSIPPEVKFNKPFVFLMIDQNTKSPLFMGKVVNPTQKFPTIPLSRLFDNAMLRAHRLNQLAFDTYQEFEEAYIPKEQKYSFLQNPQTSLCPSESIPTPSNKEETQQKSNLELLRISLLLIQSWLEPVQFLRSVFANSLVYGASDSNVYDLLKDLEEKIQTLMGRLEDGSPRTGQIFKQTYSKFDTNSHNDDALLKNYGLLYCFNKDMSKVSTYLRIVQCRSVEGSCGF
notes: also called hGHRA-NexP
B8: hGH-A11 (ligand)
chain: EDPQGDAANKTDTSHHDQDHPTFNKITPNLAEFAFSLYRQLAHQSNSTNIFFSPVSIATAFAMLSLGTKADTHDEILEGLNFNLTEIPEAQIHEGFQELLHTLNQPDSQLQLTTGNGLFLSEGLKLVDKFLEDVKKLYHSEAFTVNFGDTEEAKKQINDYVEKGTQGKIVDLVKELDRDTVFALVNYIFFKGKWERPFEVKDTEEEDFHVDQVTTVKVPMMKRLGMFNIQHCKKLSSWVLLMKYLGNATAIFFLPDEGKLQHLENELTHDIITKFLENEDRRSASLHLPKLSITGTYDLKSVLGQLGITKVFSNGADLSGVTEEAPLKLSKAVHKAVLTIDEKGTEAAGAMFLEAINMSIPPEVKFNKPFVFLMIDQNTKSPLFMGKVVNPTQKFPTIPLSRLFDNAMLRADRLNQLAFDTYQEFEEAYIPKEQKYSFLKNPQTSLCFSESIPTPSNREETQQKSNLELLRISLLLIQSWLEPVQFLRSVFANSLVYGASDSNVYDLLKDLEEKIQTLMGRLEDGSPRTGQIFKQTYSKFDTNSHNDDALLKNYGLLYCFRKDMDKVSTFLRTVQCRSVEGSCGF
notes: also called hGHRA-NexP

Columns and labels:
[1] = target: T1, recombinant hGH receptor Fc chimera; assay: ELISA on plate-coated recombinant hGH receptor Fc chimera, detected with biotinylated anti-hGH polyclonal antibody
Procedure: After additional washing step, 3,3',5,5'-tetramethylbenzidine (TMB) was added to each well to allow TMB reaction. Absorbance signals from the reaction were recorded at 450 nm to 650 nm.

[2] = target: T2, hGH receptor on hGHR/Luc/HEK293F cells; assay: cell-based or functional assay

| Molecule | Relative binding potency (relative to Pegvisomant) [1] | Relative inhibitory potency (relative to Pegvisomant) [2] | Relative binding potency [1] | Relative inhibitory potency [2] |
| --- | --- | --- | --- | --- |
| Pegvisomant (ligand) | 1 | 1 | – | – |
| B1 | – | – | 0.925 relative to Pegvisomant | 0.957 relative to Pegvisomant |
| B2 | – | – | 4.58 relative to Pegvisomant | 1.89 relative to Pegvisomant |
| B3 | – | – | 3.37 relative to Pegvisomant | 1.42 relative to Pegvisomant |
| B4 | – | – | 2.31 relative to Pegvisomant | 1.22 relative to Pegvisomant |
| B5 | – | – | 4.73 relative to Pegvisomant | 1.84 relative to Pegvisomant |
| B6 | – | – | 4.64 relative to Pegvisomant | 1.42 relative to Pegvisomant |
| B7 | – | – | 6.08 relative to Pegvisomant | 17.7 relative to Pegvisomant |
| B8 | – | – | 9.95 relative to Pegvisomant | 17.3 relative to Pegvisomant |
